Data: patent US20250002564A1 (HOSPITAL FOR SICK CHILDREN, published 2025)
Like-named read-outs stand apart in the source and are kept apart here.

Columns and labels:
[1] = molecular target: T1, SARS-CoV-2 receptor binding domain (RBD), wild type, His-tagged (SARS-CoV-2, UniProt P0DTC2 319-541); assay: BLI competition on His-tagged RBD, after 1st Ab 52
T1 construct: domain: RBD; also called His-tagged RBD; BEI NR52309

[2] = molecular target: T1, SARS-CoV-2 receptor binding domain …; assay: BLI competition on His-tagged RBD, after 1st Ab 46
[3] = molecular target: T2, SARS-CoV-2 RBD mutant L452R (SARS-CoV-2, UniProt P0DTC2 319-541); assay: BLI, IgG on mutated RBD compared with WT RBD; negative = decreased
T2 construct: domain: RBD; also called mutated RBD L452R

[4] = molecular target: T1, SARS-CoV-2 receptor binding domain …; assay: method and format not given
[5] = molecular target: T1, SARS-CoV-2 receptor binding domain …; assay: BLI competition on His-tagged RBD, after 1st Ab 80
[6] = molecular target: T1, SARS-CoV-2 receptor binding domain …; assay: BLI competition on His-tagged RBD, after 1st Ab 324
[7] = molecular target: T1, SARS-CoV-2 receptor binding domain …; assay: BLI competition on His-tagged RBD, after 1st Ab 82
[8] = molecular target: T1, SARS-CoV-2 receptor binding domain …; assay: BLI competition on His-tagged RBD, after 1st Ab 298
[9] = molecular target: T1, SARS-CoV-2 receptor binding domain …; assay: method and format not given; remark: listed apart in the source
[10] = molecular target: T1, SARS-CoV-2 receptor binding domain …; assay: BLI competition on His-tagged RBD, after 1st Ab 236

B1: mAb 236 (antibody, V domains shown)
VH: QVQLVQSGAEVKKPGASVKVSCKASGGTFTSYGINWVRQAPGQGLEWMGWMNPNSGNTGYAQKFQGRVTMTRDTSTSTVYMELSSLRSEDTAVYYCASRGIQLLPRGMDVWGQGTTVTVSS
VL: not shown
notes: also called IgG 236; Antibody 236
**Q.** What does the source list for B1?
**A.** RBD binding of 2nd Ab after 1st Ab (heat map) [1]: 1; RBD binding of 2nd Ab after 1st Ab (heat map) [2]: 1.2; Affinity change vs WT RBD (fold-change) [3]: -4.1; Kd [4]: 145 nM; RBD binding of 2nd Ab after 1st Ab (heat map) [5]: 0.1; RBD binding of 2nd Ab after 1st Ab (heat map) [6]: 0.4; RBD binding of 2nd Ab after 1st Ab (heat map) [7]: 0.2; RBD binding of 2nd Ab after 1st Ab (heat map) [8]: 0.2; Kd [9]: 145 nM; RBD binding of 2nd Ab after 1st Ab (heat map) [10]: 0.3
